According to the supplement of paper PMC12764529:
± gives the half width of the 95% confidence interval.

Assays:
[1] = folding stability dG unfold (combined trypsin and chymotrypsin); higher = more stable
Procedure, shortened: (§1)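 Only designs with AlphaFold2 dimer inter-PAE above 15 were retained; each was a mini-protein under 80 residues with no cysteine, in a PA-tagged cDNA display construct. After digestion with trypsin and chymotrypsin and sequencing, K50 was inferred by Bayesian fitting of counts, and unfolding free energy was derived per protease or combined against a sequence-predicted unfolded-state K50 and a shared folded-state K50.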

[2] = folding stability dG unfold from trypsin proteolysis; higher = more stable
Procedure, shortened: as §1

[3] = folding stability dG unfold from chymotrypsin proteolysis; higher = more stable
Procedure, shortened: as §1

SAGGPRITITYPLPPGDIEKIEKLAKEALDNGDNVDVNIPHPNGWYVTLTVDPPNGKIEEVEWQPPDKSAGG [r13_873_TrROS]
folding stability dG unfold [1]: 0.499 ± 0.12 kcal/mol
folding stability dG unfold [2]: 0.571 ± 0.076 kcal/mol
folding stability dG unfold [3]: 0.598 ± 0.061 kcal/mol

SAGGSAGGSAGGPDPEAYPFRYPDREFVLVRNPDEPDTYTILYPDDKVETVPAEDILPESAGGSAGGSAGGS [r10_556_TrMRF]
folding stability dG unfold [1]: 0.3 ± 0.06 kcal/mol
folding stability dG unfold [2]: 0.473 ± 0.027 kcal/mol
folding stability dG unfold [3]: -0.0442 ± 0.098 kcal/mol

SAGGSAGGSKVIPITFPKSLSLEQIEDFVRKIAAESGAKVKSVKIVDVDPENNRVTVLVEVEGSAGGSAGGS [r12_168_TrMRF]
folding stability dG unfold [1]: 3.31 ± 0.079 kcal/mol
folding stability dG unfold [2]: 3.14 ± 0.042 kcal/mol
folding stability dG unfold [3]: 3.34 ± 0.038 kcal/mol

IEEIKNFAKKHGFNVKIEPVKVDSEEEAKEEAEDHEKKNGYPTIIIKNPENGEIVWVIKIRPPPPPPGQPPS [r1_179_TrROS]
folding stability dG unfold [1]: 3.18 ± 0.31 kcal/mol
folding stability dG unfold [2]: 2.51 ± 0.22 kcal/mol
folding stability dG unfold [3]: 3.89 ± 0.17 kcal/mol

SAGGYYKDPNGKPREPVPKVEPKPVTITFPNLTPEQADYLADYLRDLGLEVKYDPENGMLTAEFWIYSAGGS [r16_765_TrROS]
folding stability dG unfold [1]: 1.71 ± 0.11 kcal/mol
folding stability dG unfold [2]: 1.23 ± 0.033 kcal/mol
folding stability dG unfold [3]: 1.95 ± 0.077 kcal/mol

SAGGSAGGSGGMMSRTINVSVNPAPGESPEDIVKALAAELGVTIKSVKYSTSSSSLTFTIEVVSAGGSAGGS [r20_188_JUSTAS]
folding stability dG unfold [1]: 2.16 ± 0.068 kcal/mol
folding stability dG unfold [2]: 1.05 ± 0.04 kcal/mol
folding stability dG unfold [3]: 2.48 ± 0.077 kcal/mol

SAGGSAGGSAGGMYKVTITVGGKEITIEVSEEELEELLKALEDEGYEIKEIRVEKLPEESAGGSAGGSAGGS [r10_405_TrROS_Hall]
folding stability dG unfold [1]: 3.63 ± 0.11 kcal/mol
folding stability dG unfold [2]: 3.91 ± 0.23 kcal/mol
folding stability dG unfold [3]: 3.57 ± 0.097 kcal/mol

SAGMSPELLEALRKAAEEEGLEVVEIKVEKLPNGEVKITIRLKNGKEIKEITLPKDVKTPEEALKLIRESAG [r5_352_TrROS_Hall]
folding stability dG unfold [1]: 4.31 ± 0.1 kcal/mol
folding stability dG unfold [2]: 4.82 ± 0.34 kcal/mol
folding stability dG unfold [3]: 4.04 ± 0.081 kcal/mol

SAGGMLLVEAPDGTTVEVTPEQAADLTPGAVVRHPSGDVWTYNPANDETVRIPWVSPAEVERAVAELSSAGG [r13_962_JUSTAS]
folding stability dG unfold [1]: -0.132 ± 0.043 kcal/mol
folding stability dG unfold [2]: -0.0974 ± 0.038 kcal/mol
folding stability dG unfold [3]: -0.361 ± 0.12 kcal/mol

SAGGSAGGSAGGSMKVEKLPDGKLLVFDVDTKEWKEIDVEDAEVVLDEDNGRAIVRIKPSAGGSAGGSAGGS [r4_127_TrROS_Hall]
folding stability dG unfold [1]: 0.902 ± 0.28 kcal/mol
folding stability dG unfold [2]: -0.173 ± 0.16 kcal/mol
folding stability dG unfold [3]: 1.76 ± 0.076 kcal/mol

SAGGSAGGSAGGKPKTIRIKVYNEETGEVVTLEFPEGMSLEEVKKLLEALPNLKVVEIEPSAGGSAGGSAGG [r7_624_TrROS_Hall]
folding stability dG unfold [1]: 4.45 ± 0.24 kcal/mol
folding stability dG unfold [2]: 4.79 ± 0.41 kcal/mol
folding stability dG unfold [3]: 3.62 ± 0.11 kcal/mol

SAGGMPVVIEIHVPKDKEEELARLIRRLLSELGAEVRVERFEDGIKVTAVLPDGTVIELHIVDDEKASAGGS [r16_406_TrMRF]
folding stability dG unfold [1]: 4.24 ± 0.19 kcal/mol
folding stability dG unfold [2]: 4.29 ± 0.21 kcal/mol
folding stability dG unfold [3]: 4.03 ± 0.17 kcal/mol

SAGGSAGGSAGGPPDEVVTTVTEIELPDDKVVTVTTTTVPGAGTTTTTVTTKPLTKPGVSSAGGSAGGSAGG [r11_695_JUSTAS]
folding stability dG unfold [1]: 1.82 ± 0.047 kcal/mol
folding stability dG unfold [2]: 2.5 ± 0.086 kcal/mol
folding stability dG unfold [3]: 1.12 ± 0.029 kcal/mol

SAGRFIRIRFKDPGMSMDNLVKEIKEELGIPPDHKVTIDWEPDPNGGYEITIQVDDPQVRDKILEALRSAGG [r19_215_TrROS]
folding stability dG unfold [1]: 2.97 ± 0.15 kcal/mol
folding stability dG unfold [2]: 3.46 ± 0.1 kcal/mol
folding stability dG unfold [3]: 2.5 ± 0.081 kcal/mol

SAGGSAGGKLKVRIEIYRKDPKTNKWTKVKTIEIEIEAESEEELLAAAKALAPPGYEVKVELLPSAGGSAGG [r6_623_TrROS_Hall]
folding stability dG unfold [1]: 5.15 ± 0.34 kcal/mol
folding stability dG unfold [2]: 4.26 ± 0.24 kcal/mol
folding stability dG unfold [3]: 5.23 ± 0.21 kcal/mol

SAGGSAGGSAGKMYKAKVKIGNKEYEAYIEENVPEDGTITVKFDDKTIEIKAENIEVYDESAGGSAGGSAGG [r11_247_TrMRF]
folding stability dG unfold [1]: 1.15 ± 0.067 kcal/mol
folding stability dG unfold [2]: 0.905 ± 0.031 kcal/mol
folding stability dG unfold [3]: 1.32 ± 0.11 kcal/mol

SMVFVEIFYDPIKKKKYIKIVIFLPPNDPEKIKELAEKIKKEIEKFFEELGLKVDKIEVFVFTFPPDFPLSA [r9_117_TrMRF]
folding stability dG unfold [1]: 4.6 ± 0.22 kcal/mol
folding stability dG unfold [2]: 3.38 ± 0.23 kcal/mol
folding stability dG unfold [3]: 4.99 ± 0.067 kcal/mol

SAGGSAGGSAGPPKPIWFRVKEVEVNPDNGTLEIKFENGQTITIPPENIENLPPGDWIRISAGGSAGGSAGG [r11_124_TrROS]
folding stability dG unfold [1]: 1.33 ± 0.058 kcal/mol
folding stability dG unfold [2]: 0.838 ± 0.029 kcal/mol
folding stability dG unfold [3]: 1.53 ± 0.061 kcal/mol

SAGGALENAPITVNVTITITLKDEKGNTPVITIPVTATVTSQAEADALVNATAAALEAALGATVTVASAGGS [r8_149_JUSTAS]
folding stability dG unfold [1]: 1.95 ± 0.096 kcal/mol
folding stability dG unfold [2]: 1.65 ± 0.12 kcal/mol
folding stability dG unfold [3]: 2.04 ± 0.14 kcal/mol

SAGGSAGGSMSVTLVKVERDPANNTITVTIKLPSGETAFTKTVAPGTTVTITFPDGTVLTVTESAGGSAGGS [r12_441_JUSTAS]
folding stability dG unfold [1]: 3.07 ± 0.061 kcal/mol
folding stability dG unfold [2]: 3.12 ± 0.078 kcal/mol
folding stability dG unfold [3]: 3.1 ± 0.035 kcal/mol

SAGGSAGGSSELKVVELTTEPGKYLVVTLPDGTVVVLPPGAPLPLGDGEPATVEVVPEEELRSSAGGSAGGS [r12_39_JUSTAS]
folding stability dG unfold [1]: 0.705 ± 0.046 kcal/mol
folding stability dG unfold [2]: 0.413 ± 0.041 kcal/mol
folding stability dG unfold [3]: 0.85 ± 0.022 kcal/mol
